From US12110325B2, “TM4SF5-targeting humanized antibody and use thereof” (KOREA RESEARCH INSTITUTE OF BIOSCIENCE AND BIOTECHNOLOGY, priority 2022, dated 2024)

Assays:
SNU449T7 cells [1] = assay: Combination treatment in SNU449T7 xenograft mouse model; type: in vivo; conditions: for inhibited tumor growth relative to the control: Ab27 270, sorafenib 1,200, doxorubicin 20 μg/mouse/dose i.p. twice per week, 6 times in total, alone or combined
Method: For combination treatment, SNU449T7 (1×10^6) cells were subcutaneously injected into the mice. When volumes reached about 100 mm^3, the tumor-bearing mice were randomized into control and treatment groups (n=6 per group). Ab27 (270 μg/mouse), sorafenib (1,200 μg/mouse), or doxorubicin (20 μg/mouse) was intraperitoneally (i.p.) injected twice per week (6 times in total). For the combination treatment group, Ab27 and sorafenib or doxorubicin were intraperitoneally (i.p.) injected at 6-hour intervals. Sorafenib was dissolved in DMSO/Cremophor EL/PBS (1:1:8).
(§1) Body weight and tumor volume were measured before injection of the antibody or drug. Tumor volumes were calculated using the formula width^2×length/2). Tumor masses were lysed as described in the literature for immunoblot analysis (J Clin Invest, 2008. 118 (4): pp. 1354-66) or tumor masses were fixed in 10% formalin and embedded in paraffin.
SNU449T7 (1×10^6) cells were mixed with Matrigel and subcutaneously injected into the back, and then Ab27 (270 μg/mouse/dose); sorafenib (1,200 μg/mouse/dose); doxorubicin (20 μg/mouse/dose); a combination of Ab27 (270 μg/mouse/dose) and sorafenib (1,200 μg/mouse/dose) or a combination of doxorubicin (20 μg/mouse/dose); or saline (control) were intraperitoneally injected twice per week (6 times in total) into nude mice (n=6 per group) bearing SNU449T7 xenografts.

[2] = system: sorafenib-resistant SNU449T7 cells; assay: Sorafenib-resistant SNU449T7 cell xenograft model; type: in vivo, mouse
Method: SNU449T7 cells were treated with sorafenib (1 μM to 10 μM) for 2 weeks, and the surviving cells (sorafenib-resistant SNU449T7; 1×10^6 cells) were mixed with Matrigel on ice and then injected subcutaneously into the backs of the mice. After 11 days, when tumor volumes reached about 100 mm^3, the tumor-bearing mice were randomized into control and treatment groups (n=7 per group). Ab27 (250 μg/mouse) or sorafenib (400 μg/mouse) was intraperitoneally (i.p.) injected at 2- or 3-day intervals for 2 or 3 weeks (8 times in total).
as §1
The antitumor activity of Ab27 was evaluated in a sorafenib-resistant SNU449T7 cell xenograft model. TM4SF5-overexpressing SNU449T7 cells were treated with sorafenib (1 μM to 10 μM; 3 culture medium changes per week) for 3 weeks, and the surviving sorafenib-resistant cells (1×10^6) were mixed with Matrigel and then subcutaneously injected into the flanks of the nude mice. Ab27 (250 μg/mouse) or sorafenib (400 μg/mouse) was injected at 2- or 3-day intervals (8 times in total).

SNU-398 cells = assay: SNU-398 liver cancer xenograft (endogenous TM4SF5); type: in vivo; conditions: Ab27 300, cetuximab 300 or sorafenib 600 μg/mouse/dose
Method: as §1
(§2) Formalin-fixed and paraffin-embedded 6-μm-thick tissue sections from xenograft tumors were processed for immunohistochemistry analysis as per the standard protocol. Sections were stained with anti-Ki67 antibody (SP6; Abcam) using the peroxidase technique. The proliferative index (%) was determined by calculating the number of Ki67^+ cells relative to the total number of cells, which consisted of at least 1,000 cells per field. Five randomly selected fields from tumor sections per mouse were analyzed using ImageJ software.

TM4SF5 [3] = target: T1, TM4SF5 (Homo sapiens, UniProt O14894); assay: Internalization analysis of SNU449Tp cells by flow cytometry; type: cell-based; conditions: Ab27 0.3 μg/mL, Ab27-hz9 0.2 μg/mL
T1 construct: expressed in transfected cells; SNU449Cp (TM4SF5-low control)
T1 sequence (O14894 1-197): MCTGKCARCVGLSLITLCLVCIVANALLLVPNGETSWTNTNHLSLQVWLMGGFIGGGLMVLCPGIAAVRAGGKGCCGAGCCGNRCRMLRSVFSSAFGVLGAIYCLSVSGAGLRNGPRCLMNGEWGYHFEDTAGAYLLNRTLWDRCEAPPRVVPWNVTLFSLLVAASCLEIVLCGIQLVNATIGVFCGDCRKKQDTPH
Method: Cell-surface binding and subsequent internalization of Ab27 and Ab27-hz9 were analyzed using flow cytometry. Briefly, cells were incubated with Ab27 or Ab27-hz9 at 4° C. for 45 minutes, washed to remove unbound antibodies, and then either warmed to 37° C. to allow internalization or maintained at 4° C. Cells were transferred to ice-cold buffer to stop the occurrence of internalization and stained with FITC-conjugated anti-human IgG. PI^− cells were analyzed by flow cytometry. The relative levels of Ab27 or Ab27-hz9 bound to the cell surface were calculated as the shift in the fluorescence signal of the antibody occupancy relative to that detected at the beginning of the internalization period.
For the internalization analysis of SNU449Tp cells with Ab27 and Ab27-hz9, Ab27 (0.3 μg/mL) and Ab27-hz9 (0.2 μg/mL) were used to maintain a similar extent of initial antibody binding to TM4SF5.

[4] = system: SNU449Tp cell-derived tumors; assay: In vivo tumor targeting, DyLight 755-labeled antibody, SNU449T7 xenograft; design: species or system mouse; conditions: DyLight 755 label, 96 hours after injection; control IgG mostly in the liver
Method: (§3) Ab27, Ab27-hz9, and normal human IgG were conjugated with DyLight 755 and purified using a DyLight 755 Antibody Labeling Kit (Thermo Scientific) according to the manufacturer's instructions. When the size of the tumor formed by SNU449T7 or SNU-398 cell reached about 100 mm^3, 70 μg of dye-labeled antibody was injected into the tail vein of nude mice. The distribution profiles of the antibody were quantified by in vivo fluorescence using IVIS imaging system at 0, 24, 48, 72, and 96 hours after antibody injection. The tumor was removed at 96 hours after injection to determine the distribution of the DyLight755-labeled antibody in tumor tissues.
In order to validate the tumor-targeting ability of anti-TM4SF5 antibodies, the distributions of Ab27 and Ab27-hz9 after injection into SNU449Tp xenograft model were determined. SNU449T7 cells were subcutaneously injected into the flanks of the nude mice so as to prepare mice bearing tumors. Ab27, Ab27-hz9, and control human IgG were labeled with a fluorescent dye (DyLight 755) and […] injected into nude mice bearing SNU449Tp cell-derived tumors. After 96 hours, the distribution of the dye-labeled antibody was quantified by measuring the total photon flux of the fluorescence.

TM4SF5 [5] = target: T1, TM4SF5; assay: Flow cytometry of SNU449Cp and SNU449Tp cells; type: cell-based
Method: To analyze antibody binding to TM4SF5, flow cytometry was performed using SNU449Cp, SNU449Tp, HEK293E, and CT26 cells. HCT-116, SNU-398, HT-29, C8161, and SNU-638 cells that had been transiently transfected with either a TM4SF5-specific siRNA or a negative control siRNA were also analyzed. Cells (2×10^5) were incubated with Ab27 or Ab27-hz9 at 0.03 μg to 0.3 μg at 4° C. for 45 minutes in 100 μL PBS containing 1% BSA. The cells were washed twice with 1% BSA/PBS, followed by a 30-minute incubation with fluorescein isothiocyanate (FITC)-conjugated anti-human IgG (Fc-specific; Pierce, Rockford, Ill., USA). Viable propidium iodide (PI)^− cells were analyzed for antibody binding using FACSCalibur (BD Immunocytometry System, San Jose, Calif., USA). To generate hemagglutinin (HA)-tagged mouse TM4SF5-expression vector, mouse TM4SF5 cDNA (Accession No. NM_029360.3) was subcloned into pCMV-HA-N vector (Clonetech, Mountain View, Calif.). PC3 cells transiently transfected with HA-tagged mouse TM4SF5-expression vector were incubated with Ab27 and anti-HA, and then analyzed by flow cytometry.

TM4SF5 [6] = target: T1, TM4SF5; assay: Immunocytochemistry of SNU449Cp and SNU449Tp cells; type: cell-based; conditions: SNU449Tp versus SNU449Cp; Ab27-hz9 with a stronger level
Method: SNU-449Cp, SNU-449Tp, and HepG2 and HT-29 cells that had been transiently transfected with TM4SF5-specific siRNA were plated on coverslips and incubated for 48 hours. The cells were then fixed for 20 minutes in methanol and permeabilized with acetone for 1 minute. After blocking in 1% normal horse serum, the cells were incubated with Ab27 or Ab27-hz9 ([…]), followed by a corresponding secondary antibody conjugated to FITC. The cells were counterstained with 4,6-diamidino-2-phenylindole (DAPI; Sigma) to visualize nuclei. Immunofluorescent images were acquired under a confocal microscope (LSM 510 META, Carl Zeiss, Jena, Germany).

SNU449T7 cells [7] = assay: SNU449T7 liver cancer xenograft, Ab27-hz9 versus Ab27 and cetuximab; type: in vivo, mouse
Method: SNU449T7 (1×10^7) cells were subcutaneously injected into the flanks of mice. When volumes reached about 100 mm^3, the tumor-bearing mice were randomized into control and treatment groups (n=6 per group). […] Normal human IgG was injected as a negative control.
as §1, §2
The antitumor efficacy of Ab27-hz9 was evaluated in the SNU449T7 xenograft model. SNU449T7 cells (3×10^6) were subcutaneously injected into the flanks of mice.

[8] = system: endogenous TM4SF5-expressing tumors; assay: In vivo tumor targeting, DyLight 755-labeled antibody, SNU-398 xenograft; design: species or system mouse; conditions: DyLight 755 label, tail vein, 96 hours; control IgG mostly in the liver
Method: as §3
Additionally, in vivo tumor targeting of Ab27 and Ab27-hz9 were examined using a SNU-398 xenograft mouse model. To confirm in vivo tumor targeting of Ab27 and Ab27-hz9 in endogenous TM4SF5-expressing liver cancer xenografts, SNU-398 cells were subcutaneously injected into the flanks of the nude mice so as to prepare mice bearing tumors. Ab27, Ab27-hz9, and control human IgG were labeled with DyLight 755 were injected into the tail veil of tumor-bearing mice, and fluorescence was measured after 96 hours.

`COc1cccc2c1C(=O)c1c(O)c3c(c(O)c1C2=O)C[C@@](O)(C(=O)CO)C[C@@H]3O[C@H]1C[C@H](N)[C@H](O)[C@H](C)O1` [doxorubicin] was tested, and the “inhibited tumor growth relative to the control” value (SNU449T7 cells [1]) was 26%.

For `CNC(=O)c1cc(Oc2ccc(NC(=O)Nc3ccc(Cl)c(C(F)(F)F)c3)cc2)ccn1` [sorafenib], the “immunoblot of xenograft tumor tissues: phosphorylation of FAK, c-Src, p27Kip1, STAT3 and expression of BMI1” value ([2]; Ab27 250 μg/mouse or sorafenib 400 μg/mouse) was “relatively moderately decreased the phosphorylation of FAK, c-Src, p27^KiP1, and STAT3”, the “tumor growth (in words)” value ([2]; sorafenib 400 μg/mouse/dose, 8 times in total) was “did not remarkably decrease tumor growth” and the “Ki67 proliferation index of tumor sections” value (SNU-398 cells) was “significantly decreased”. The “inhibited tumor growth (tumor volume)” value (SNU-398 cells; 6 times in total, normal human IgG control) was 51%, the “inhibited tumor growth relative to the control” value (SNU449T7 cells [1]) was 42% and the “phosphorylation of STAT3 in tumor lysates” value (SNU449T7 cells [1]; sorafenib 1,200 μg/mouse/dose) was “abolished the phosphorylation of STAT3”.

B1: Ab27-hz9: humanized monoclonal antibody of Ab27; VH SEQ ID NO: 7, VL SEQ ID NO: 8; IGHV1-2 and IGKV3-20 frameworks (antibody, V domains shown)
VH: QVQLVQSGAEVKKPGASVKVSCKASGYTFTDYEMHWVRQAPGQGLEWMGAIDPETGGTAYNQKFKGRVTMTADKSISTAYMELSRLRSDDTAVYYCARPYLGYWGQGTLVTVSS
VL: EIVLTQSPGTLSLSPGERATLSCRSSQSLVHSNGNTYLHWYQQKPGQAPRLLIYKVSNRFSGIPDRFSGSGSGTDFTLTISRLEPEDFAVYYCFQGSHIPLTFGQGTKVEIK
modifications: VH; VL
notes: humanized monoclonal antibody of Ab27; IGHV1-2 and IGKV3-20 frameworks
In the case of B1, the “residual level of cell surface-bound antibody” value (TM4SF5 [3]) is reported as “significantly reduced”, the “distribution of dye-labeled antibody (total photon flux)” value [4] is reported as “predominantly localized to the tumors” and the “binding to SNU449Tp (high-TM4SF5) versus SNU449Cp (TM4SF5-low) cells” value (TM4SF5 [5]) is reported as “bound more efficiently to SNU449Tp cells than to SNU449Cp cells”. For the same molecule, the “immunofluorescence staining of membrane edges” value (TM4SF5 [6]) was “stained the membrane edges of SNU449Tp cells, but not those of SNU449Cp cells”, the “level of proliferative Ki67+ cells in tumor sections versus control mice” value (SNU449T7 cells [7]; 300 μg/mouse/dose) was “significantly lower” and the “inhibited tumor growth (tumor volume)” value (SNU449T7 cells [7]; 300 μg/mouse/dose i.p. 3 or 4 times per week, 12 times in total, normal human IgG control) was “about 66%”. The body weight (SNU449T7 cells [7]; 300 μg/mouse/dose, 12 times in total) was “without affecting body weight” and the “distribution of dye-labeled antibody (fluorescence)” value [8] was “substantially localized in endogenous TM4SF5-expressing tumors”.
